Experimental findings from US20220025045A1 are described below.

Experiment [1] has as its target recombinant human ILT2 protein (analyte in SPR and Octet) (human) (UniProt Q8NHL6). Description: BLI (Octet RED96), mAb captured on AMC biosensor, 1:1 model.
For experiment [2], the target named is human ILT-2 (LILRB1), complete form expressed at the cell surface (human) (UniProt Q8NHL6). Description: flow cytometry, CHO-ILT2 cells. Background: Flow cytometry measures light scatter and fluorescence of single cells or particles in a stream.
Sequence of human ILT-2 (LILRB1), complete form expressed at the cell surface (human) (Q8NHL6 24-650): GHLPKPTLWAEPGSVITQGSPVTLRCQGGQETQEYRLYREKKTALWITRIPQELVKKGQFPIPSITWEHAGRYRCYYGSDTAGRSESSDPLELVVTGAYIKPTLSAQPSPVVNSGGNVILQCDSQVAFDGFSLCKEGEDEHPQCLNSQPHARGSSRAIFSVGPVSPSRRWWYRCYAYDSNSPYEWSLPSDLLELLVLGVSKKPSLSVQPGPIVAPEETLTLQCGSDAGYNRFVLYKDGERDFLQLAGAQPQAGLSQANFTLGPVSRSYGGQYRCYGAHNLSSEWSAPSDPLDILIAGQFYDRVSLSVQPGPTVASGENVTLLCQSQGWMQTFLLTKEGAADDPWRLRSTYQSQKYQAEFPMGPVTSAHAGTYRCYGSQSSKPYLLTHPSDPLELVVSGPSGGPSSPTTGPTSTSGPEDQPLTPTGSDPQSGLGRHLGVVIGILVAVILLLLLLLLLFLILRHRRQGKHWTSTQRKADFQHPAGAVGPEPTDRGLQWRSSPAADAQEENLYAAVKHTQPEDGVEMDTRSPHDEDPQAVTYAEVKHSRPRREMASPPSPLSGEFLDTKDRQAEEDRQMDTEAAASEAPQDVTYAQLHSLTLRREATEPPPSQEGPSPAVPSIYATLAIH
In experiment [3] the target is ILT2 on primary human NK cells (human) (UniProt Q8NHL6). Description: flow cytometry, primary NK cells.
Sequence of ILT2 on primary human NK cells (human) (Q8NHL6 24-650): as above
Experiment [4] has as its target recombinant human CD16a(V) (human) (UniProt P08637). Description: SPR, antibody immobilized, soluble FcR, steady state. (In general: In SPR one partner is held on a chip, and binding of the other changes the refractive index at the surface.)
Experiment [5] has as its target recombinant human CD32a (human) (UniProt P12318). The description is as above.
Experiment [6] has as its target recombinant human CD16b (human) (UniProt O75015). The experiment is described as above.
In experiment [7] the target is recombinant human CD16a(F) (human) (UniProt P08637). The experiment is described as above.
Sequence of recombinant human CD16a(F) (human) (P08637 17-208 limits assumed): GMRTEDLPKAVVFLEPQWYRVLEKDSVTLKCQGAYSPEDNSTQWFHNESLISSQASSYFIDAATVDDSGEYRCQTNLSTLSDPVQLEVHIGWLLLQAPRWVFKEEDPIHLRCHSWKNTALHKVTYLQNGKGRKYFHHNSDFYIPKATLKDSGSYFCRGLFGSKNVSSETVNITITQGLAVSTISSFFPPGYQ
Experiment [8] deals with human FcRn (human) (UniProt P55899). Description: SPR, antibody immobilized, soluble FcR.
Sequence of human FcRn (human) (P55899 24-297 limits assumed, chain 1 of 2): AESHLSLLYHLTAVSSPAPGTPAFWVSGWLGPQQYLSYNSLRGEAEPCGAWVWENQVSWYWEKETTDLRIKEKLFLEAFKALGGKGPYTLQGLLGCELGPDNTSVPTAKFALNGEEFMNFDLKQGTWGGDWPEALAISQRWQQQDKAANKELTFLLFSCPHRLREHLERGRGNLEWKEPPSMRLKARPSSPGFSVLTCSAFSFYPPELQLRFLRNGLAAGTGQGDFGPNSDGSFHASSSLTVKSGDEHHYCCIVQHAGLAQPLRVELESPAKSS
Sequence of human FcRn (human) (chain, as listed by the source limits assumed, chain 2 of 2): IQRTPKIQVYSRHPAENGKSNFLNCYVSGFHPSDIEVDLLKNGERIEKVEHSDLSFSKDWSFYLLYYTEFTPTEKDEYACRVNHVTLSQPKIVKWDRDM
Experiment [9] has as its target recombinant human CD32b (human) (UniProt P31994). Description: SPR, antibody immobilized, soluble FcR, steady state.
For experiment [10], the target named is recombinant human CD64 (human) (UniProt P12314). Description: SPR, antibody immobilized, soluble CD64, 1:1 kinetic model.
Sequence of recombinant human CD64 (human) (P12314 16-288 limits assumed): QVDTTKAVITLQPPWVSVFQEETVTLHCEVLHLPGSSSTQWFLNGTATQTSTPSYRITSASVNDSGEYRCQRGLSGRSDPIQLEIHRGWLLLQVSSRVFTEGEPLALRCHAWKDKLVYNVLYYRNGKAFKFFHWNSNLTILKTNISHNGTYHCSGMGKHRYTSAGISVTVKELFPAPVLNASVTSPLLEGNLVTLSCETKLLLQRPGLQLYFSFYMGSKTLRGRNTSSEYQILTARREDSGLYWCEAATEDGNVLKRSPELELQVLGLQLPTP

Sequence of recombinant human ILT2 protein (analyte in SPR and Octet) (human) (Q8NHL6 24-458 limits assumed): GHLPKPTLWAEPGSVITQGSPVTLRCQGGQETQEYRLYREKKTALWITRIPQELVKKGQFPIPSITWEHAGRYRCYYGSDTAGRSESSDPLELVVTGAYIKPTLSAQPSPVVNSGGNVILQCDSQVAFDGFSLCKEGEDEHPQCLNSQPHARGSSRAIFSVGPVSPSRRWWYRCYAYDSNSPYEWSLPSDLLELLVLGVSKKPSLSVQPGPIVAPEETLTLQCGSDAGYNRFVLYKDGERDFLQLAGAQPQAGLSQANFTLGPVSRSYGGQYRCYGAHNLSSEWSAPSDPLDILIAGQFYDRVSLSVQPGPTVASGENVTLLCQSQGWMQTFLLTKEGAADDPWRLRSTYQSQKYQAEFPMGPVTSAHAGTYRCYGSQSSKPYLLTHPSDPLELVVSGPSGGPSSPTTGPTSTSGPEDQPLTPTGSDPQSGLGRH
Sequence of recombinant human CD16a(V) (human) (P08637 17-208 F176V limits assumed): as the sequence (P08637 17-208 limits assumed) above, with F160V counted along it
Sequence of recombinant human CD32b (human) (P31994 46-217): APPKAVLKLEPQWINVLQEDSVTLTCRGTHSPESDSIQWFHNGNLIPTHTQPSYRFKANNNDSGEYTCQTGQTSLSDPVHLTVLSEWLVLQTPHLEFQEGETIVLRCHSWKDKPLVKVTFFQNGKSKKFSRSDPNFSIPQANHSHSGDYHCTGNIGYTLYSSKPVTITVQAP
Sequence of recombinant human CD32a (human) (P12318 36-218): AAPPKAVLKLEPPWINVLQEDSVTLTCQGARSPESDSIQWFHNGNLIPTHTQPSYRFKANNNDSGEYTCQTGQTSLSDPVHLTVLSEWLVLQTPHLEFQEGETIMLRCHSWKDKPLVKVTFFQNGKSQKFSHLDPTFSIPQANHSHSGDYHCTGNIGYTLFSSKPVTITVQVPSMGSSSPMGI
Sequence of recombinant human CD16b (human) (O75015 17-200 limits assumed): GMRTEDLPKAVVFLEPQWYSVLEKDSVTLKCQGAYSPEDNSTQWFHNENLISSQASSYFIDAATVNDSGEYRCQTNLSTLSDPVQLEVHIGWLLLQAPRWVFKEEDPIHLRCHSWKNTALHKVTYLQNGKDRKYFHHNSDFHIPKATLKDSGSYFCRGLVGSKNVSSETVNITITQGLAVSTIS

HP-F1 (antibody): in experiment [1], the Kd (as a rule, a measure of binding affinity in units of concentration) was found to be 2.3 nM; the koff – broadly, a measure of how fast the partners let go of each other – amounted to 0.0011 s⁻¹; the kon (usually the second-order rate constant of association) was found to be 460000 M⁻¹ s⁻¹. In addition, the EC50 (in general, the concentration giving half of the maximal effect) in experiment [2] was 0.56 µg/mL. The same substance yielded an EC50 in experiment [3] of 0.09 µg/mL.
For the substance “antibody having wild type human IgG1 domain”, the Kd in experiment [4] came out at 734 nM; in [5] it was 2080 nM; in experiment [6], 15000 nM; in experiment [7], 962 nM; in experiment [8], 1270 nM.
As for “human IgG1 antibody having L234A/L235E/G237A/A330S/P331S substitutions”, in experiment [8], the Kd is 714 nM.
With “human IgG1 antibody having L234A/L235E/G237A/A330S/P331S substitutions (antibody; other documents disagree on this pair)”, the results for the Kd in experiment [9] and in experiment [5] were 21800 nM and 18200 nM, respectively.
Regarding “human IgG1 antibody having L234A/L235E/G237A/P331S substitutions”, the figures for the Kd in experiment [9], in experiment [5] and in [8] were 16600 nM, 16800 nM and 758 nM, respectively.
In the case of “human IgG1 antibody having L234A/L235E/P331S substitutions”, the Kd in experiment [10] came to 1550 nM; in experiment [9], 79800 nM; in experiment [4], 9920 nM; in experiment [5], 19900 nM; in experiment [8], 1510 nM.
For “human IgG1 antibody having L234F/L235E/P331S substitutions”, the Kd came to 933 nM in [10]; 17400 nM in [9]; 8630 nM in [4]; 14200 nM in [5]; 35600 nM in [7]; 627 nM in experiment [8].
On to “human IgG1 antibody having a N297S substitution”, for which the values for the Kd in experiment [10] and in [8] were 278 nM and 712 nM, respectively.
